Measurements published in patent publication US8785135B2, “Mutant G-protein coupled receptors and methods for selecting them” (Heptares Therapeutics Limited, priority 2007, dated 2014).

Columns and labels:
Rant 21 = Rant 21 (Homo sapiens, UniProt P29274, A54L/K122A/T88A/V239A); assay: Competition assay against [3H]ZM241385, detergent-solubilised receptor; format: binding; conditions: versus wild-type A2aR
[1] = Thermostability of A2aR and mutants (ligand binding after or during heating); format: physicochemical
How it was run: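 Thermostability of wild-type and site-directed mutant A2aR assessed by agonist or antagonist binding either after heating (ligand(−) format) or during heating with ligand present (ligand(+) format); stability expressed as Tm.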

[2] = Stability of wild-type and mutant A2aR in different detergents; format: physicochemical

B1: Rant 21: A2aR mutant A54L, T88A, V239A+K122A (protein, UniProt P29274 1-412, looked up, variant A54L T88A V239A K122A)
Adenosine receptor A2a: MPIMGSSVYITVELAIAVLAILGNVLVCWAVWLNSNLQNVTNYFVVSLAAADILVGVLAIPFAITISTGFCAACHGCLFIACFVLVLAQSSIFSLLAIAIDRYIAIRIPLRYNGLVTGTRAAGIIAICWVLSFAIGLTPMLGWNNCGQPKEGKNHSQGCGEGQVACLFEDVVPMNYMVYFNFFACVLVPLLLMLGVYLRIFLAARRQLKQMESQPLPGERARSTLQKEVHAAKSLAIIAGLFALCWLPLHIINCFTFFCPDCSHAPLWLMYLAIVLSHTNSVVNPFIYAYRIREFRQTFRKIIRSHVLRQQEPFKAAGTSARVLAAHGSDGEQVSLRLNGHPPGVWANGSAPHPERRPNGYALGLVSGGSAQESQGNTGLPDVELLSHELKGVCPEPPGLDDPLAQDGAGVS
Which “agonist binding weaker than parent” value (Rant 21) does the source give for B1 here?
Its value is 2-4 orders of magnitude.

And the “Tm +antagonist” value ([1]; 1% DDM (no glycerol), antagonist-occupied state)?
Its value is 49 °C.

And the “Tm −antagonist” value ([1]; 1% DDM (no glycerol), apo-state, antagonist binding)?
The value was 41 °C.

And the Tm ([1]; ZM241385 bound)?
Its Tm is 49 °C.

And the “Tm Antagonist-binding” value ([2]; 0.003% LDAO)?
The value was 42 °C.

What about the “Tm Antagonist-binding” value ([2]; 0.006% FC12) of the same molecule?
The value was 49 °C.

What about the “Tm Antagonist-binding” value ([2]; 0.01% DDM) of the same molecule?
Its value is 39 °C.

What about the “Tm Antagonist-binding” value ([2]; 0.1% DM) of the same molecule?
The value was 28 °C.

And the “Tm Antagonist-binding” value ([2]; 0.3% NG)?
The value was 22 °C.

What about the “Tm Antagonist-binding” value ([2]; 0.3% NM) of the same molecule?
The value was 25 °C.

What about the “Tm Antagonist-binding” value ([2]; 0.6% OG) of the same molecule?
Its value is 23 °C.
